Results on 9 sequences are retold here after the supplement of paper PMC11246515.

± gives the standard deviation of the averaged measurements.

The nature of the series: total protein half-life in vivo (active degradation + dilution); higher = more stable protein.
Where [1] appears, read: E. coli NCM3722 delta-clpP delta-lon delta-hslV, growth: N-lim chemostat, doubling time 6 h.
Setting [2] is: wild type E. coli NCM3722, growth: C-lim chemostat, doubling time 3 h.
[3] abbreviates: wild type E. coli NCM3722, growth: C-lim chemostat, doubling time 12 h.
The mark [4] stands for this setting: E. coli NCM3722 delta-clpP, growth: N-lim chemostat, doubling time 6 h.
[5] abbreviates: E. coli NCM3722 delta-hslV, growth: N-lim chemostat, doubling time 6 h.
[6] abbreviates: E. coli NCM3722 delta-lon, growth: N-lim chemostat, doubling time 6 h.
[7] abbreviates: E. coli NCM3722 delta-smpB, growth: N-lim chemostat, doubling time 6 h.
Setting [8] is: wild type E. coli NCM3722, growth: C-lim chemostat, doubling time 6 h.
The mark [9] stands for this setting: wild type E. coli NCM3722, growth: N-lim chemostat, doubling time 6 h.
[10] abbreviates: wild type E. coli NCM3722, growth: N-lim chemostat, doubling time 12 h.
[11] abbreviates: wild type E. coli NCM3722, growth: P-lim chemostat, doubling time 6 h.
Setting [12] is: wild type E. coli NCM3722, growth: P-lim chemostat, doubling time 12 h.

With “MRNHRISLQDIATLAGVTKMTVSRYIRSPKKVAKETGERIAKIMEEINYIPNRAPGMLLNAQSYTLGILIPSFQNQLFADILAGIESVTSEHNYQTLIANYNYDRDSEEESVINLLSYNIDGIILSEKYHTIRTVKFLRSATIPVVELMDVQGERLDMEVGFDNRQAAFDMVCTMLEKRVRHKILYLGSKDDTRDEQRYQGYCDAMMLHNLSPLRMNPRAISSIHLGMQLMRDALSANPDLDGVFCTNDDIAMGALLLCRERNLAVPEQISIAGFHGLEIGRQMIPSLASVITPRFDIGRMAAQMLLSKIKNNDHNHNTVDLGYQIYHGNTL”, the “total protein half-life in vivo” value is 6.39 ± 1.7 h under setting [1], 0.548 h under setting [2] and 1.1 h under setting [3].

Consider “MSEDIFDAIIVGAGLAGSVAALVLAREGAQVLVIERGNSAGAKNVTGGRLYAHSLEHIIPGFADSAPVERLITHEKLAFMTEKSAMTMDYCNGDETSPSQRSYSVLRSKFDAWLMEQAEEAGAQLITGIRVDNLVQRDGKVVGVEADGDVIEAKTVILADGVNSILAEKLGMAKRVKPTDVAVGVKELIELPKSVIEDRFQLQGNQGAACLFAGSPTDGLMGGGFLYTNENTLSLGLVCGLHHLHDAKKSVPQMLEDFKQHPAVAPLIAGGKLVEYSAHVVPEAGINMLPELVGDGVLIAGDAAGMCMNLGFTIRGMDLAIAAGEAAAKTVLSAMKSDDFSKQKLAEYRQHLESGPLRDMRMYQKLPAFLDNPRMFSGYPELAVGVARDLFTIDGSAPELMRKKILRHGKKVGFINLIKDGMKGVTVL”, for which, under setting [3], the “total protein half-life in vivo” value amounted to 9.28 h.

As to “MLSRRGHRLSRFRKNKRRLRERLRQRIFFRDKVVPEAMEKPRVLVLTGAGISAESGIRTFRAADGLWEEHRVEDVATPEGFDRDPELVQAFYNARRRQLQQPEIQPNAAHLALAKLQDALGDRFLLVTQNIDNLHERAGNTNVIHMHGELLKVRCSQSGQVLDWTGDVTPEDKCHCCQFPAPLRPHVVWFGEMPLGMDEIYMALSMADIFIAIGTSGHVYPAAGFVHEAKLHGAHTVELNLEPSQVGNEFAEKYYGPASQVVPEFVEKLLKGLKAGSIA”, the “total protein half-life in vivo” value is 5.1 ± 0.51 h under setting [1]; 4.14 ± 0.054 h under setting [4]; 4.03 ± 0.65 h under setting [5]; 5.77 ± 0.77 h under setting [6]; 4.15 ± 0.36 h under setting [7]; 2.64 ± 0.21 h under setting [2]. Also, the “total protein half-life in vivo” value came to 4.79 ± 0.29 h under setting [8]; 10.2 ± 0.35 h under setting [3]; 4.37 ± 0.24 h under setting [9]; 7.71 ± 0.99 h under setting [10]; 5.56 ± 0.39 h under setting [11]; 10.5 ± 1.2 h under setting [12].

Take “MSFSVDVLANIAIELQRGIGHQDRFQRLITTLRQVLECDASALLRYDSRQFIPLAIDGLAKDVLGRRFALEGHPRLEAIARAGDVVRFPADSELPDPYDGLIPGQESLKVHACVGLPLFAGQNLIGALTLDGMQPDQFDVFSDEELRLIAALAAGALSNALLIEQLESQNMLPGDATPFEAVKQTQMIGLSPGMTQLKKEIEIVAASDLNVLISGETGTGKELVAKAIHEASPRAVNPLVYLNCAALPESVAESELFGHVKGAFTGAISNRSGKFEMADNGTLFLDEIGELSLALQAKLLRVLQYGDIQRVGDDRCLRVDVRVLAATNRDLREEVLAGRFRADLFHRLSVFPLSVPPLRERGDDVILLAGYFCEQCRLRQGLSRVVLSAGARNLLQHYSFPGNVRELEHAIHRAVVLARATRSGDEVILEAQHFAFPEVTLPTPEVAAVPVVKQNLREATEAFQRETIRQALAQNHHNWAACARMLETDVANLHRLAKRLGLKD”: the “total protein half-life in vivo” value reads like this: under setting [6], 4.32 h; under setting [7], 3.19 ± 0.46 h; under setting [2], 2.33 h; under setting [3], 7.42 ± 0.3 h; under setting [9], 3.76 h; under setting [10], 5.2 ± 0.5 h. Besides, the “total protein half-life in vivo” value under setting [12] was 7.35 ± 0.38 h.

Consider “MVNLVIVSHSSRLGEGVGELARQMLMSDSCKIAIAAGIDDPQNPIGTDAVKVMEAIESVADADHVLVMMDMGSALLSAETALELLAPEIAAKVRLCAAPLVEGTLAATVSAASGADIDKVIFDAMHALEAKREQLGLPSSDTEISDTCPAYDEEARSLAVVIKNRNGLHVRPASRLVYTLSTFNADMLLEKNGKCVTPESINQIALLQVRYNDTLRLIAKGPEAEEALIAFRQLAEDNFGETEEVAPPTLRPVPPVSGKAFYYQPVLCTVQAKSTLTVEEEQDRLRQAIDFTLLDLMTLTAKAEASGLDDIAAIFSGHHTLLDDPELLAAASELLQHEHCTAEYAWQQVLKELSQQYQQLDDEYLQARYIDVDDLLHRTLVHLTQTKEELPQFNSPTILLAENIYPSTVLQLDPAVVKGICLSAGSPVSHSALIARELGIGWICQQGEKLYAIQPEETLTLDVKTQRFNRQG”, for which the “total protein half-life in vivo” value under setting [1] came to 5.07 ± 0.8 h; the “total protein half-life in vivo” value under setting [4] is 5.24 ± 0.96 h; the “total protein half-life in vivo” value under setting [5] was 4.67 ± 0.96 h; the “total protein half-life in vivo” value under setting [6] is 4.07 ± 0.32 h; the “total protein half-life in vivo” value under setting [7] worked out at 3.51 ± 0.52 h; the “total protein half-life in vivo” value under setting [2] is 3.39 ± 0.48 h. In addition, the “total protein half-life in vivo” value was determined as 6.02 ± 0.54 h under setting [8]; 10 ± 0.98 h under setting [3]; 4.01 ± 0.29 h under setting [9]; 6.3 ± 0.85 h under setting [10]; 5.33 ± 0.27 h under setting [11]; 11.4 ± 1.5 h under setting [12].

In the case of “MMTKTQINKLIKMMNDLDYPFEAPLKESFIESIIQIEFNSNSTNCLEKLCNEVSILFKNQPDYLTFLRAMDGFEVNGLRLFSLSIPEPSVKNLFAVNEFYRNNDDFINPDLQERLVIGDYSISIFTYDIKGDAANLLI”, the “total protein half-life in vivo” value under setting [1] came out at 4.14 h.

Consider “MTDKTSLSYKDAGVDIDAGNALVGRIKGVVKKTRRPEVMGGLGGFGALCALPQKYREPVLVSGTDGVGTKLRLAMDLKRHDTIGIDLVAMCVNDLVVQGAEPLFFLDYYATGKLDVDTASAVISGIAEGCLQSGCSLVGGETAEMPGMYHGEDYDVAGFCVGVVEKSEIIDGSKVSDGDVLIALGSSGPHSNGYSLVRKILEVSGCDPQTTELDGKPLADHLLAPTRIYVKSVLELIEKVDVHAIAHLTGGGFWENIPRVLPDNTQAVIDESSWQWPEVFNWLQTAGNVEHHEMYRTFNCGVGMIIALPAPEVDKALALLNANGENAWKIGIIKASDSEQRVVIE”, for which the “total protein half-life in vivo” value came to 4.99 ± 0.091 h under setting [1]; 4.62 ± 1 h under setting [4]; 4.47 ± 0.064 h under setting [5]; 5.23 ± 0.1 h under setting [6]; 4.258 ± 0.021 h under setting [7]; 2.94 ± 0.24 h under setting [2]. The “total protein half-life in vivo” value runs as follows: under setting [8], 5.66 ± 0.063 h; under setting [3], 11.1 ± 0.42 h; under setting [9], 4.53 ± 0.17 h; under setting [10], 7.47 ± 0.71 h; under setting [11], 4.7 ± 0.29 h; under setting [12], 9.07 ± 2 h.

Regarding “MQQLQNIIETAFERRAEITPANADTVTREAVNQVIALLDSGALRVAEKIDGQWVTHQWLKKAVLLSFRINDNQVIEGAESRYFDKVPMKFADYDEARFQKEGFRVVPPAAVRQGAFIARNTVLMPSYVNIGAYVDEGTMVDTWATVGSCAQIGKNVHLSGGVGIGGVLEPLQANPTIIEDNCFIGARSEVVEGVIVEEGSVISMGVYIGQSTRIYDRETGEIHYGRVPAGSVVVSGNLPSKDGKYSLYCAVIVKKVDAKTRGKVGINELLRTID [P0A9D8]”, the “total protein half-life in vivo” value reads like this: under setting [1], 4.878 ± 0.043 h; under setting [4], 4.24 ± 0.13 h; under setting [5], 4.13 ± 0.23 h; under setting [6], 4.507 ± 0.042 h; under setting [7], 4.12 ± 0.12 h; under setting [2], 2.97 ± 0.074 h. For the same sequence, the “total protein half-life in vivo” value turned out to be 5.34 ± 0.39 h under setting [8]; 9.591 ± 0.062 h under setting [3]; 4.19 ± 0.11 h under setting [9]; 6.89 ± 0.2 h under setting [10]; 5.91 ± 0.12 h under setting [11]; 11 ± 0.57 h under setting [12].

As to “MKKLVLAALLASFTFGASAAEKINFGVSATYPPFESIGANNEIVGFDIDLAKALCKQMQAECTFTNHAFDSLIPSLKFRKYDAVISGMDITPERSKQVSFTTPYYENSAVVIAKKDTYKTFADLKGKRIGMENGTTHQKYIQDQHPEVKTVSYDSYQNAFIDLKNGRIDGVFGDTAVVNEWLKTNPQLGVATEKVTDPQYFGTGLGIAVRPDNKALLEKLNNALAAIKADGTYQKISDQWFPQ”, the “total protein half-life in vivo” value is, setting by setting: under setting [1], 4.29 ± 0.69 h; under setting [4], 5.1 ± 0.92 h; under setting [5], 5.91 ± 0.093 h; under setting [6], 6.25 ± 0.23 h; under setting [7], 5.73 ± 0.62 h; under setting [2], 2.99 ± 0.12 h. Besides, the “total protein half-life in vivo” value was 6.13 ± 0.83 h under setting [8]; 9.32 ± 1.2 h under setting [3]; 5.47 ± 0.24 h under setting [9]; 11.9 ± 0.32 h under setting [10]; 5.3886 ± 0.0029 h under setting [11]; 11 ± 1.2 h under setting [12].
